Columns and labels:
[1] = target: T1, human CD3 (TCR/CD3 complex on the cell surface) (human, UniProt P07766 23-207; P04234 22-171; P09693 23-182); assay: flow cytometry, Jurkat WT cells, 10 ug/mL
T1 construct: whole, on cells; Native CD3 on human Pan-T cells or Jurkat wild-type cells; also called CD3 on Pan-T cells; CD3 on Jurkat WT cells

[2] = target: T1, human CD3 (TCR/CD3 complex on the cell …); assay: flow cytometry, Jurkat WT cells, 1 ug/mL
[3] = target: T1, human CD3 (TCR/CD3 complex on the cell …); assay: flow cytometry, Pan-T cells, 10 ug/mL
[4] = target: T1, human CD3 (TCR/CD3 complex on the cell …); assay: flow cytometry, Pan-T cells, 1 ug/mL
[5] = target: T1, human CD3 (TCR/CD3 complex on the cell …); assay: flow cytometry, Jurkat WT gMFI over Jurkat KO gMFI, 1 ug/mL
[6] = target: T1, human CD3 (TCR/CD3 complex on the cell …); assay: flow cytometry, Jurkat WT gMFI over Jurkat KO gMFI, 10 ug/mL
recombinant CD3 proteins = assay: Octet (BLI), bispecific antibody against recombinant CD3 proteins

T1 sequence (P07766 23-207, chain 1 of 3): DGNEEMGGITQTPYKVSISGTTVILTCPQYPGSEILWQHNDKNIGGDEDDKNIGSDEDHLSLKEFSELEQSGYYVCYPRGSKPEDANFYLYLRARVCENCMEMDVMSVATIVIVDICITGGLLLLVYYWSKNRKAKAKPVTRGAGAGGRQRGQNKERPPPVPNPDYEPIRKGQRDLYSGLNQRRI
T1 sequence (P04234 22-171, chain 2 of 3): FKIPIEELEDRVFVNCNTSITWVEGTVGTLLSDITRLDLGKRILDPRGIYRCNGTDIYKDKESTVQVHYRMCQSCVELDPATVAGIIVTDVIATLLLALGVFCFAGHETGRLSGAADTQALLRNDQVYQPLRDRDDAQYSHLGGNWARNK
T1 sequence (P09693 23-182, chain 3 of 3): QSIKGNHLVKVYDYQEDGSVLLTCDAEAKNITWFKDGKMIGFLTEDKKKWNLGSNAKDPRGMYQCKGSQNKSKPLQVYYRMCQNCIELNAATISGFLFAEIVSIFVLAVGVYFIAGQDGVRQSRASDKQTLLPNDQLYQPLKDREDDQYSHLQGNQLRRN

gMFI [1]	gMFI [2]	% Positive [3]	gMFI [3]	% Positive [4]	gMFI [4]	Jurkat WT/KO (Fold) [5]	Jurkat WT/KO (Fold) [6]	Kd (recombinant CD3 proteins)	Response (recombinant CD3 proteins)	koff (recombinant CD3 proteins)	kon (recombinant CD3 proteins)	Binder
3760 gMFI	1950 gMFI	66.1%	8340 gMFI	2%	2430 gMFI	1 fold	2 fold					CD3 × CD33-BspAb72 (bispecific antibody) chain 1: EVQLVESGGGLVQPGGSLRLSCAASGFTFSSYSMNWVRQAPGKCLEWVSYISSSSSTIYYADSVKGRFTISRDNAKNSLYLQMNSLRDEDTAVYYCARDGPVDYGMDVWGQGTTVTVSSGGGGSGGGGSGGGGSGGGGSSYELTQPPSVSVSPGQTARITCSGDALPKQYTYWYQQKPGQAPVLVIYKDSERPSGIPERFSGSSSGTTVTLTISGVQAEDEADYYCQSADSSGTYRVFGCGTKLTVLDKTHTCPPCPAPEFEGGPSVFLFPPKPKDTLMISRTPEVTCVVVDVSHEDPEVKFNWYVDGVEVHNAKTKPREEQYNSTYRVVSVLTVLHQDWLNGKEYKCKVSNKALPASIEKTISKAKGQPREPQVYTLPPCREEMTKNQVSLWCLVKGFYPSDIAVEWESNGQPENNYKTTPPVLDSDGSFFLYSKLTVDKSRWQQGNVFSCSVMHEALHNHYTQKSLSLSPGK chain 2: EVQLVQSGAEVKKPGSSVKVSCKASGYTITDSNIHWVRQAPGQSLEWIGYIYPYNGGTDYNQKFKNRATLTVDNPTNTAYMELSSLRSEDTAFYYCVNGNPWLAYWGQGTLVTVSSASTKGPSVFPLAPSSKSTSGGTAALGCLVKDYFPEPVTVSWNSGALTSGVHTFPAVLQSSGLYSLSSVVTVPSSSLGTQTYICNVNHKPSNTKVDKRVEPKSCDKTHTCPPCPAPEFEGGPSVFLFPPKPKDTLMISRTPEVTCVVVDVSHEDPEVKFNWYVDGVEVHNAKTKPREEQYNSTYRVVSVLTVLHQDWLNGKEYKCKVSNKALPASIEKTISKAKGQPREPQVCTLPPSREEMTKNQVSLSCAVKGFYPSDIAVEWESNGQPENNYKTTPPVLDSDGSFFLVSKLTVDKSRWQQGNVFSCSVMHEALHNRFTQKSLSLSPGK chain 3: DIQLTQSPSTLSASVGDRVTITCRASESLDNYGIRFLTWFQQKPGKAPKLLMYAASNQGSGVPSRFSGSGSGTEFTLTISSLQPDDFATYYCQQTKEVPWSFGQGTKVEVKRTVAAPSVFIFPPSDEQLKSGTASVVCLLNNFYPREAKVQWKVDNALQSGNSQESVTEQDSKDSTYSLSSTLTLSKADYEKHKVYACEVTHQGLSSPVTKSFNRGEC
6110 gMFI	2510 gMFI	95.9%	22000 gMFI	17.3%	4180 gMFI	1.2 fold	3 fold					CD3 × CD33-BspAb73 (bispecific antibody, KiH heterodimer) scFv-Fc: EVQLVESGGGLVKPGGSLRLSCAASGFTFSSYSMNWVRQAPGKCLEWVSSVNSRGSYIYYADSVKGRFTISRDNAKDSLYLQMNSLRADDTAVYYCARDRRELLLDYWGQGTLVTVSSGGGGSGGGGSGGGGSGGGGSSYELTQPPSVSVSPGQTARITCSGDALPKKYAYWYQQKSGQAPVLVIYEDSKRPSGIPERFSGSSSGTMATLTISGAQVEDEADYYCYSTDSSGNHSWVFGCGTKLTVLGGGGSDKTHTCPPCPAPEFEGGPSVFLFPPKPKDTLMISRTPEVTCVVVDVSHEDPEVKFNWYVDGVEVHNAKTKPREEQYNSTYRVVSVLTVLHQDWLNGKEYKCKVSNKALPASIEKTISKAKGQPREPQVYTLPPCREEMTKNQVSLWCLVKGFYPSDIAVEWESNGQPENNYKTTPPVLDSDGSFFLYSKLTVDKSRWQQGNVFSCSVMHEALHNHYTQKSLSLSPGK heavy: EVQLVQSGAEVKKPGSSVKVSCKASGYTITDSNIHWVRQAPGQSLEWIGYIYPYNGGTDYNQKFKNRATLTVDNPTNTAYMELSSLRSEDTAFYYCVNGNPWLAYWGQGTLVTVSSASTKGPSVFPLAPSSKSTSGGTAALGCLVKDYFPEPVTVSWNSGALTSGVHTFPAVLQSSGLYSLSSVVTVPSSSLGTQTYICNVNHKPSNTKVDKRVEPKSCDKTHTCPPCPAPEFEGGPSVFLFPPKPKDTLMISRTPEVTCVVVDVSHEDPEVKFNWYVDGVEVHNAKTKPREEQYNSTYRVVSVLTVLHQDWLNGKEYKCKVSNKALPASIEKTISKAKGQPREPQVCTLPPSREEMTKNQVSLSCAVKGFYPSDIAVEWESNGQPENNYKTTPPVLDSDGSFFLVSKLTVDKSRWQQGNVFSCSVMHEALHNRFTQKSLSLSPGK light: DIQLTQSPSTLSASVGDRVTITCRASESLDNYGIRFLTWFQQKPGKAPKLLMYAASNQGSGVPSRFSGSGSGTEFTLTISSLQPDDFATYYCQQTKEVPWSFGQGTKVEVKRTVAAPSVFIFPPSDEQLKSGTASVVCLLNNFYPREAKVQWKVDNALQSGNSQESVTEQDSKDSTYSLSSTLTLSKADYEKHKVYACEVTHQGLSSPVTKSFNRGEC
15900 gMFI	11300 gMFI	99.7%	149000 gMFI	99.2%	69800 gMFI	5.3 fold	7.2 fold					CD3 × CD33-BspAb75 (bispecific antibody, KiH heterodimer) scFv-Fc: EVQLVESGGGLVKPGGSLRLSCAASGFTFSSYSMNWVRQAPGKCLEWVSSISRRSGYIYYADSVKGRFTLSRDNAKKSLYLQMNSLRAEDTAVYYCARDLNWAFDYWGQGTLVTVSSGGGGSGGGGSGGGGSGGGGSNFMLTQPHSVSESPGKTVTISCTRSSGSIASNYVQWYQQRPGSSPTTVIYEDNHRPSGVPDRFSGSIDSSSNSASLTIAGLKTEDEADYYCQSYDSSNVVFGCGTKLTVLGGGGSDKTHTCPPCPAPEFEGGPSVFLFPPKPKDTLMISRTPEVTCVVVDVSHEDPEVKFNWYVDGVEVHNAKTKPREEQYNSTYRVVSVLTVLHQDWLNGKEYKCKVSNKALPASIEKTISKAKGQPREPQVYTLPPCREEMTKNQVSLWCLVKGFYPSDIAVEWESNGQPENNYKTTPPVLDSDGSFFLYSKLTVDKSRWQQGNVFSCSVMHEALHNHYTQKSLSLSPGK heavy: EVQLVQSGAEVKKPGSSVKVSCKASGYTITDSNIHWVRQAPGQSLEWIGYIYPYNGGTDYNQKFKNRATLTVDNPTNTAYMELSSLRSEDTAFYYCVNGNPWLAYWGQGTLVTVSSASTKGPSVFPLAPSSKSTSGGTAALGCLVKDYFPEPVTVSWNSGALTSGVHTFPAVLQSSGLYSLSSVVTVPSSSLGTQTYICNVNHKPSNTKVDKRVEPKSCDKTHTCPPCPAPEFEGGPSVFLFPPKPKDTLMISRTPEVTCVVVDVSHEDPEVKFNWYVDGVEVHNAKTKPREEQYNSTYRVVSVLTVLHQDWLNGKEYKCKVSNKALPASIEKTISKAKGQPREPQVCTLPPSREEMTKNQVSLSCAVKGFYPSDIAVEWESNGQPENNYKTTPPVLDSDGSFFLVSKLTVDKSRWQQGNVFSCSVMHEALHNRFTQKSLSLSPGK light: DIQLTQSPSTLSASVGDRVTITCRASESLDNYGIRFLTWFQQKPGKAPKLLMYAASNQGSGVPSRFSGSGSGTEFTLTISSLQPDDFATYYCQQTKEVPWSFGQGTKVEVKRTVAAPSVFIFPPSDEQLKSGTASVVCLLNNFYPREAKVQWKVDNALQSGNSQESVTEQDSKDSTYSLSSTLTLSKADYEKHKVYACEVTHQGLSSPVTKSFNRGEC
								11.7 nM	0.09	0.00134 s⁻¹	114000 M⁻¹ s⁻¹	CD3 × CD33-BspAb65 (bispecific antibody) chain 1: NFMLTQPHSVSESPGKTVTIACTRSSGSIASNYVQWYQQRPGSSPTTVIYEDNQRPSGVPDRFSGSIDSSSNSASLTISGLKTEDEADYYCQSYDSSNQVFGCGTKLTVLGGGGSGGGGSGGGGSGGGGSQVTLKESGPGILQPSQTLSLTCSFSGFSLSTFGMGVGWIRQPSGKCLEWLAHIWWDDDKYYNPALKSRLTISKDTSKNQVFLKIANVDTADTATYYCARLGYYPYWFFDVWGTGTTVTVSSDKTHTCPPCPAPEFEGGPSVFLFPPKPKDTLMISRTPEVTCVVVDVSHEDPEVKFNWYVDGVEVHNAKTKPREEQYNSTYRVVSVLTVLHQDWLNGKEYKCKVSNKALPASIEKTISKAKGQPREPQVYTLPPCREEMTKNQVSLWCLVKGFYPSDIAVEWESNGQPENNYKTTPPVLDSDGSFFLYSKLTVDKSRWQQGNVFSCSVMHEALHNHYTQKSLSLSPGK chain 2: EVQLVQSGAEVKKPGSSVKVSCKASGYTITDSNIHWVRQAPGQSLEWIGYIYPYNGGTDYNQKFKNRATLTVDNPTNTAYMELSSLRSEDTAFYYCVNGNPWLAYWGQGTLVTVSSASTKGPSVFPLAPSSKSTSGGTAALGCLVKDYFPEPVTVSWNSGALTSGVHTFPAVLQSSGLYSLSSVVTVPSSSLGTQTYICNVNHKPSNTKVDKRVEPKSCDKTHTCPPCPAPEFEGGPSVFLFPPKPKDTLMISRTPEVTCVVVDVSHEDPEVKFNWYVDGVEVHNAKTKPREEQYNSTYRVVSVLTVLHQDWLNGKEYKCKVSNKALPASIEKTISKAKGQPREPQVCTLPPSREEMTKNQVSLSCAVKGFYPSDIAVEWESNGQPENNYKTTPPVLDSDGSFFLVSKLTVDKSRWQQGNVFSCSVMHEALHNRFTQKSLSLSPGK chain 3: DIQLTQSPSTLSASVGDRVTITCRASESLDNYGIRFLTWFQQKPGKAPKLLMYAASNQGSGVPSRFSGSGSGTEFTLTISSLQPDDFATYYCQQTKEVPWSFGQGTKVEVKRTVAAPSVFIFPPSDEQLKSGTASVVCLLNNFYPREAKVQWKVDNALQSGNSQESVTEQDSKDSTYSLSSTLTLSKADYEKHKVYACEVTHQGLSSPVTKSFNRGEC
